Measurements reported in the supplement of paper PMC9170038.

Tested on: MS2 coat protein
Assay: apparent KD of MS2 coat protein; designed switch direction (-1 OFF switch, 1 ON switch): -1; higher = weaker reporter binding
Summary of the method: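 The reported apparent KD is a per-design median over clusters, from curve fits of normalised cluster fluorescence. Protein titrations used SNAP-549-labelled MS2 coat protein, doubled from 0.7 or 1.5 nM to 3 µM, in Tris-HCl pH 7.5 buffer with KCl, MgCl2, BSA, DTT, tRNA and Tween-20, with no input, 200 uM small-molecule ligand, or an oligonucleotide input. The RNA switches were transcribed on Illumina chips by stalled E. coli RNA polymerase.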

[1] = Eterna round: R95, input ligand: microRNA oligo, concentration not stated
[2] = Eterna round: R95, input ligand: FMN 200 uM
[3] = Eterna round: R95, input ligand: none
[4] = input ligand: microRNA oligo, concentration not stated

| Sequence | apparent KD of MS2 coat protein (input ligand: FMN 200 uM) [nM] | apparent KD of MS2 coat protein (input ligand: none) [nM] | apparent KD of MS2 coat protein [1] [nM] | apparent KD of MS2 coat protein [2] [nM] | apparent KD of MS2 coat protein [3] [nM] | apparent KD of MS2 coat protein [4] [nM] |
| --- | --- | --- | --- | --- | --- | --- |
| AGCUAGAUAGGAUAUGCCCGGGAUAACAUGAGGAUCACCCAUGUGACCGAUUCAUGUCCAGCAGAAGGGUUUGGGA [Mod of ViennaUCT 8 - Jieux - Exclusion 5] (Eterna round: R97, puzzle: Exclusion 5) | 17.1 | 16.7 | – | – | – | – |
| CGUUCUCACGUCAGGAUAUAGGACUUGCACGUGUGCUAGAAGGGACAUGAGGAUCACCCAUGUAAAUAAGAAAG [Quonbi] (Eterna round: R97, puzzle: Brourd's mod of Exclusion 4) | 37.5 | 27.1 | – | – | – | – |
| AGGUAACAUGAGGAUCACCCAUGUCAGGAUAUCAUGAAGAGGAGAUUAGAGGAGAGGUUGAGAAGGGACUAUAU [Excluse me! 14 - Jieux - Exclusion 1] (puzzle: Exclusion 1) | – | – | 57.1 | – | – | – |
| CUUAGACAUGAGGAUCACCCAUGUGAGGAUAUGAAAUUAAUUAAGUAUGAAGUAUGAAUCAGAAGGCACAUAUG [Mat - Mod of Hyphema D34] (puzzle: Exclusion 1) | – | – | 92.1 | 61.7 | 81.6 | – |
| UGAUCUACUGAGGAUAUUAUAUCACCCGACUGAUAAGAAGGCAGUACAUGAGGAUCACCCAUGUGGGUAGCCAU [Polaris9] (Eterna round: R97, puzzle: Exclusion 6) | 50.8 | 34.7 | – | – | – | – |
| GGUCCGUGUGUGAGGAUAUGCUGGUCCUUGGAUCAGCAGAAGGCACAUGAGGAUCACCCAUGUGGUGUCGGACC [Mat - Exclusion 4 - Eli Mod - D33] (Eterna round: R97, puzzle: Brourd's mod of Exclusion 4) | 24.6 | 361 | – | – | – | – |
| AAGUACCGUCACGAUAGUGAUGGUACAACAAGUAGUGAAACAUGAGGAUCACCCAUGUCCUCAGUUGCUCGUCUUAU [Sensor 3 - 86] (puzzle: Sensor v3, turn-off variant 2) | – | – | 269 | 283 | 298 | – |
| UCAGGUGCAGGAUAUACAUGAGGAUCACCCAUGUGGUCACGUGACGAUAGUCACGAAUGUAGAAGGGCACCUGA [E3/3-D1] (Eterna round: R97, puzzle: Exclusion 3) | 60.1 | 958 | – | – | – | – |
| CCCACGUGAGGAUAUUCAACGGUAAGCGAUCUAUGCACCUUGAAGAAGGCACAUGAGGAUCACCCAUGUCCUAA [Eternabot (L1) Solution 44] (Eterna round: R97, puzzle: Exclusion 4) | 44.8 | 22.2 | – | – | – | – |
| UUUGUUUAUGUAGGAUAUGCCUGGCGUGCCUUUGCAGAAGGACAUGAGGAUCACCCAUGUAUUGCGGUCUGCGUUCAGAUCGCC [salish99_ExNG1_r4_036] (Eterna round: R96, puzzle: Exclusion NG 1) | 29.6 | 23 | – | – | – | 17.4 |
| AAGAAAGAGUUAGGAUAUACAUGAGGAUCACCCAUGUGGUGGUAAAUCCGCUGGGUCGGUUCGAUGUAGAAGGAACAACCGCCG [Inisinlaon] (Eterna round: R96, puzzle: Exclusion NG 2) | 281 | 68.3 | – | – | – | 18.7 |
| UUGAUGUGAGGAUAUAUUUUGUGUUUUCUUUAUGUUUUAUAACUUGAGGAUCACCCAAGUAGAAGGCGCUACGU [JR_Ex2_Sub065] (Eterna round: R97, puzzle: Exclusion 2) | 119 | 60.6 | – | – | – | – |
| CCAAGCUUAUUCAUUAACAACAUGAGGAUCACCCAUGUGUAGGCAAUUAUGUUUGGGCUCUUUAGUGCUCGUCUUAU [Sensor-V1 #22] (Eterna round: R97, puzzle: Sensor, turn-off variant 1) | 14.7 | 14.7 | – | – | – | – |
| AUAAGUGAUAAGGAUAUUACUAGCUGCGGCUAGUGAGAAGGUAUCACAUGAGGAUCACCCAUGUGUUCCAAUAA [Ex6/7-B3] (Eterna round: R97, puzzle: Exclusion 6) | 254 | 134 | – | – | – | – |
| GGCACACAUGUAGGAUAUCUGCACGUUUAGUGCAGAGAAGGACAUGAGGAUCACCCAUGUAAUUAAGAUCAAUUAUUAAGUGCC [ENG1/3-A2] (Eterna round: R96, puzzle: Exclusion NG 1) | 564 | 58.3 | – | – | – | 48.6 |
| AGCUGUGGCCGAGGAUAUCUCAUAGUCCCAACCGAAAUAUAAUCGGACAUGAGGAUCACCCAUGUAGAGAAGGCGGUCUCAGCA [Eli eng2 - 071] (Eterna round: R96, puzzle: Exclusion NG 2) | 115 | 151 | – | – | – | 40.7 |
| GUACAUAUAGGAUAUACAUGAGGAUCACCCAUGUAAAUCGUUAGUUGGGAUUCUAAAAGUAGAAGGGUGGUGCG [Eternabot (L2) Solution 30] (Eterna round: R97, puzzle: Exclusion 3) | 27.6 | 27.4 | – | – | – | – |

| Sequence | apparent KD of MS2 coat protein (input ligand: FMN 200 uM) [nM] | apparent KD of MS2 coat protein (input ligand: none) [nM] | apparent KD of MS2 coat protein [1] [nM] | apparent KD of MS2 coat protein [2] [nM] | apparent KD of MS2 coat protein [3] [nM] | apparent KD of MS2 coat protein [4] [nM] |
| --- | --- | --- | --- | --- | --- | --- |
| UCGCUCCGUGUAGGAUAUCGCCGUACGAUGCGGCGAGAAGGACAUGAGGAUCACCCAUGUAUGUUAUUAUCACGCGUGGCGCAA [Design 62] (Eterna round: R96, puzzle: Exclusion NG 1) | 21.3 | 16.5 | – | – | – | 11.3 |
| AAUCCACAUGAGGAUCACCCAUGUGAGGAUAUGAUACUAUGUACUUCGGUACAUAGUAUCAGAAGGCACGGAUC [Ex1-3: 53] (puzzle: Exclusion 1) | – | – | 29.9 | – | – | – |
| UAGAUGGGAGGAUAUGCAUAGAUACAGAUUCAUGUAGUGCUACAUGAGGAUCACCCAUGUAGAAGGCCCGUCUU [JL-ex2-2.20 Mayanne mod] (Eterna round: R96, puzzle: Exclusion 2) | 208 | 24.1 | – | – | – | 22.1 |
| GUUUAGUGAGGAUAUGUGGCUUCGAUCGUGCGCGGUCUGCUACAGAAGGCACAUGAGGAUCACCCAUGUUCCUC [salish99_ex4_r4_308] (Eterna round: R97, puzzle: Exclusion 4) | 579 | 123 | – | – | – | – |
| UCCGUGUCAGGAUAUGCUAGCGCAAAGUUGCCCGCGCUGUAGCAGAAGGGACAUGAGGAUCACCCAUGUCUACA [Exclusion 4 (Mod of Nando's EX4 C.10 cleaner dot)] (Eterna round: R97, puzzle: Exclusion 4) | 70.7 | 20.4 | – | – | – | – |
| AAGAAACAUGAGGAUCACCCAUGUGAGGAUAUGAAAAAGAAAAGAAAAGAAAGAAGAAUCAGAAGGCACAAAGA [salish99-ex1_r3_080] (puzzle: Exclusion 1) | – | – | 22.2 | 26.9 | 27.1 | – |
| UUUUUCAGGCCAGAUCCUCACAUGAGGAUCACCCAUGUGCUCGUCUGUUUUCGCGCUAGCUUUUUUUUGGUAGGGCU [Level Boss var2-17] (puzzle: Sensor v3, turn-off variant 1) | – | – | 29.7 | 329 | 325 | – |
| AAGAGUGCAGGAUAUACUUGGUAGGGCGGGUGGAUGGUUUGACAUGAGGAUCACCCAUGUAGAAGGGCAGAGAG [JR_Exclu2_Sub054] (puzzle: Exclusion 2) | – | – | 31.4 | – | – | – |
| AGAUCGUCAGGAUAUACAUGAGGAUCACCCAUGUAUUGUCUAAAUUUGACUAUACGAUGUAGAAGGGACGAUCG [Exclusion 3 (MOD7 of #1 Marzena11)] (Eterna round: R97, puzzle: Exclusion 3) | 41.7 | 16.2 | – | – | – | – |
| AGUCCUAGUCAAGGAUAUACACCGAAGAAAUACGUAGAAGGUGACAUGAGGAUCACCCAUGUAGGGCCUCUGGAAACAGAGGAA [Indiinbi] (Eterna round: R96, puzzle: Exclusion NG 1) | 208 | 143 | – | – | – | 107 |
| UUUUUAUCUGAAGGAUAUACUUAACAUGAGGAUCACCCAUGUGGUGUUGUGAGUGAGUGAGUUUAGUAGAAGGUCAAUUAUUUU [JMF's solution 19] (Eterna round: R96, puzzle: Exclusion NG 2) | 1310 | 380 | – | – | – | 392 |
| GGAUCGAGUGUGAGGAUAUGCUGGUCCUUGGAUCAGCAGAAGGCACAUGAGGAUCACCCAUGUGGAGACGGUCC [JL bmx4 3.17] (puzzle: Brourd's mod of Exclusion 4) | – | – | 92.4 | 298 | 102 | – |
| AGUACUAUCACGAAAGUGAUAGUACAAUGAGCUUUUGAAACAUGAGGAUCACCCAUGUCCUCAUAAGCUCGUCUUAU [JL turnoff v2 52] (Eterna round: R96, puzzle: Sensor v2, turn-off variant 2) | 17.4 | 18.9 | – | – | – | 123 |
| UAUAUAUAGUAAGGAUAUGUAUUUAUUUCAUAAACAGAAGGUACUGACAUGAGGAUCACCCAUGUUUUAGUGUGGGCAUGUAGA [JMF's solution 21] (Eterna round: R96, puzzle: Exclusion NG 1) | – | – | – | – | – | 62.1 |
| AUAUUACAUGAGGAUCACCCAUGUGAGGAUAUGGAGCGAGACUGUCCUGUCGCGUACACCAGAAGGCGCGGGUG [1st #52] (Eterna round: R97, puzzle: Exclusion 1) | 183 | 118 | – | – | – | – |
| AGUACUAACACGGGAGUGUUAGUACAAUAAGCUUGUGAAACAUGAGGAUCACCCAUGUCCUCAUAAGCUCGUCUUAU [salish99_TOv2_r3_060] (Eterna round: R96, puzzle: Sensor v3, turn-off variant 2) | 14.5 | 17.4 | – | – | – | 436 |
